Results as given in patent US12692305 (REVERB THERAPEUTICS, dated 2026).
Numbering of substitutions follows the chain as printed.

B1: RV26 (bispecific antibody, human IgG1, lambda, L234A L235A)
heavy 1: QVQLVQSGAEVKKPGASVKVSCKASGYSFSSFGISWVRQAPGQGLEWLGWISAFNGYTKYAQKFQDRVTMTTDTSTSTAYMELRSLRSDDTAVYYCARDPAAWPLQQSLAWFDPWGQGTMVTVSSASTKGPSVFPLAPSSKSTSGGTAALGCLVKDYFPEPVTVSWNSGALTSGVHTFPAVLQSSGLYSLSSVVTVPSSSLGTQTYICNVNHKPSNTKVDKKVEPKSCDKTHTCPPCPAPEAAGGPSVFLFPPKPKDTLMISRTPEVTCVVVDVSHEDPEVKFNWYVDGVEVHNAKTKPREEQYNSTYRVVSVLTVLHQDWLNGKEYKCKVSNKALGAPIEKTISKAKGQPREPQVYVYPPSRDELTKNQVSLTCLVKGFYPSDIAVEWESNGQPENNYKTTPPVLDSDGSFALVSKLTVDKSRWQQGNVFSCSVMHEALHNHYTQKSLSLSPGKGGGGSGGGGSGGGGSGGGGSEIVLTQSPATLSLSPGERATLSCRASKGVSTSGYSYLHWYQQKPGQAPRLLIYLASYLESGVPARFSGSGSGTDFTLTISSLEPEDFAVYYCQHSRDLPLTFGCGTKVEIKGGSGGGSGGGSGGGSGGGSGQVQLVQSGVEVKKPGASVKVSCKASGYTFTNYYMYWVRQAPGQCLEWMGGINPSNGGTNFNEKFKNRVTLTTDSSTTTAYMELKSLQFDDTAVYYCARRDYRFDMGFDYWGQGTTVTVSS
heavy 2: QVQLVQSGAEVKKPGASVKVSCKASGYSFSSFGISWVRQAPGQGLEWLGWISAFNGYTKYAQKFQDRVTMTTDTSTSTAYMELRSLRSDDTAVYYCARDPAAWPLQQSLAWFDPWGQGTMVTVSSASTKGPSVFPLAPSSKSTSGGTAALGCLVKDYFPEPVTVSWNSGALTSGVHTFPAVLQSSGLYSLSSVVTVPSSSLGTQTYICNVNHKPSNTKVDKKVEPKSCDKTHTCPPCPAPEAAGGPSVFLFPPKPKDTLMISRTPEVTCVVVDVSHEDPEVKFNWYVDGVEVHNAKTKPREEQYNSTYRVVSVLTVLHQDWLNGKEYKCKVSNKALGAPIEKTISKAKGQPREPQVYVLPPSRDELTKNQVSLLCLVKGFYPSDIAVEWESNGQPENNYLTWPPVLDSDGSFFLYSKLTVDKSRWQQGNVFSCSVMHEALHNHYTQKSLSLSPG
light: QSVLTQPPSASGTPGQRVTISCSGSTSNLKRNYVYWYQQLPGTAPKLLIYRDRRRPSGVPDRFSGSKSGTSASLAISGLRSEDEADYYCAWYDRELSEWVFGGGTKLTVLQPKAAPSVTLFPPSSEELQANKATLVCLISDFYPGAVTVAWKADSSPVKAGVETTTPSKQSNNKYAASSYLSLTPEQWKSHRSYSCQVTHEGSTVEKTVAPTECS
notes: Heterodimeric IgG1 LALAPG, two anti-IL-15 Fabs and one anti-PD1 scFv (H1H2L1L1); also called fusion of 1 scFv to a HC of a bispecific antibody in Fab-Fab format (RV26)
B2: RV15 (bispecific antibody, human IgG1, kappa, lambda, L234A L235A)
heavy 1: QVQLVQSGVEVKKPGASVKVSCKASGYTFTNYYMYWVRQAPGQGLEWMGGINPSNGGTNFNEKFKNRVTLTTDSSTTTAYMELKSLQFDDTAVYYCARRDYRFDMGFDYWGQGTTVTVSSASTKGPSVFPLAPSSKSTSGGTAALGCEVTDYFPEPVTVSWNSGALTSGVHTFPAVLESSGLYSLSSVVTVPSSSLGTQTYICNVNHKPSNTKVDKKVEPDSCDKTHTCPPCPAPEAAGGPSVFLFPPKPKDTLMISRTPEVTCVVVDVSHEDPEVKFNWYVDGVEVHNAKTKPREEQYNSTYRVVSVLTVLHQDWLNGKEYKCKVSNKALGAPIEKTISKAKGQPREPQVYVYPPSRDELTKNQVSLTCLVKGFYPSDIAVEWESNGQPENNYKTTPPVLDSDGSFALVSKLTVDKSRWQQGNVFSCSVMHEALHNHYTQKSLSLSPG
light 1: EIVLTQSPATLSLSPGERATLSCRASKGVSTSGYSYLHWYQQKPGQAPRLLIYLASYLESGVPARFSGSGSGTDFTLTISSLEPEDFAVYYCQHSRDLPLTFGGGTKVEIKRTVAAPSVFIFPPKDERLKSGTASVVCLLNNFYPREAKVQWKVDNALQSGNSQESVTEQDSKDSTYSLSSRLTLSKADYEKHKVYACEVTHQGLSSPVTKSFNRGEC
heavy 2: B1 heavy 2 with A137R, S191K
light 2: QSVLTQPPSASGTPGQRVTISCSGSTSNLKRNYVYWYQQLPGTAPKLLIYRDRRRPSGVPDRFSGSKSGTSASLAISGLRSEDEADYYCAWYDRELSEWVFGGGTKLTVLQPKAAPSVTLFPPSDEELQANTATLVCLISDFYPGAVTVAWKADSSPVKAGVETTTPSKQSNNKYAAESELSLTPEQWKSHRSYSCQVTHEGSTVEKTVAPTECS
notes: Asymmetric IgG1 LALAPG heterodimer, one anti-PD1 Fab arm and one anti-IL-15 Fab arm (H1H2L1L2); also called bispecific antibody in a Fab-Fab format (RV15)
B3: RV36 (bispecific antibody, human IgG1, kappa, L234A L235A)
heavy: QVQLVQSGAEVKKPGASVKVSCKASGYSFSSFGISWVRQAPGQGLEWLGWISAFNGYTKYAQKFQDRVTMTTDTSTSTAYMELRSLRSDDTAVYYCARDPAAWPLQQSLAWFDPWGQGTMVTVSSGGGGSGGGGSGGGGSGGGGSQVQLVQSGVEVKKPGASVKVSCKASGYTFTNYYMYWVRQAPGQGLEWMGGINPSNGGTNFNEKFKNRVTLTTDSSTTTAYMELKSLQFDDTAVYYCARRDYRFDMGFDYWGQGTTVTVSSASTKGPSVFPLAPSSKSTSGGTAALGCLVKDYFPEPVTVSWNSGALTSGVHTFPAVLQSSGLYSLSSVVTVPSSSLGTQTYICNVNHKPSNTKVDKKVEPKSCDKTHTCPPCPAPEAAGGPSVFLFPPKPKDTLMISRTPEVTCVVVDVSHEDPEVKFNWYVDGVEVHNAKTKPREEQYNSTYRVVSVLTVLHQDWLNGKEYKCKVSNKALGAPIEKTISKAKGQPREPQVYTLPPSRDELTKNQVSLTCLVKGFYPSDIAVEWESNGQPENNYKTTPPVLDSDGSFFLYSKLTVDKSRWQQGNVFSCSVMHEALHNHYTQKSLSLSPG
light: QSVLTQPPSASGTPGQRVTISCSGSTSNLKRNYVYWYQQLPGTAPKLLIYRDRRRPSGVPDRFSGSKSGTSASLAISGLRSEDEADYYCAWYDRELSEWVFGGGTKLTVLGGGGSGGGGSGGGGSGGGGSEIVLTQSPATLSLSPGERATLSCRASKGVSTSGYSYLHWYQQKPGQAPRLLIYLASYLESGVPARFSGSGSGTDFTLTISSLEPEDFAVYYCQHSRDLPLTFGGGTKVEIKRTVAAPSVFIFPPSDEQLKSGTASVVCLLNNFYPREAKVQWKVDNALQSGNSQESVTEQDSKDSTYSLSSTLTLSKADYEKHKVYACEVTHQGLSSPVTKSFNRGEC
notes: Dual variable domain format like RV29 but with a longer inter-Fv linker, IgG1 LALAPG
B4: RV31 (bispecific antibody, human IgG1, kappa, lambda, L234A L235A)
heavy: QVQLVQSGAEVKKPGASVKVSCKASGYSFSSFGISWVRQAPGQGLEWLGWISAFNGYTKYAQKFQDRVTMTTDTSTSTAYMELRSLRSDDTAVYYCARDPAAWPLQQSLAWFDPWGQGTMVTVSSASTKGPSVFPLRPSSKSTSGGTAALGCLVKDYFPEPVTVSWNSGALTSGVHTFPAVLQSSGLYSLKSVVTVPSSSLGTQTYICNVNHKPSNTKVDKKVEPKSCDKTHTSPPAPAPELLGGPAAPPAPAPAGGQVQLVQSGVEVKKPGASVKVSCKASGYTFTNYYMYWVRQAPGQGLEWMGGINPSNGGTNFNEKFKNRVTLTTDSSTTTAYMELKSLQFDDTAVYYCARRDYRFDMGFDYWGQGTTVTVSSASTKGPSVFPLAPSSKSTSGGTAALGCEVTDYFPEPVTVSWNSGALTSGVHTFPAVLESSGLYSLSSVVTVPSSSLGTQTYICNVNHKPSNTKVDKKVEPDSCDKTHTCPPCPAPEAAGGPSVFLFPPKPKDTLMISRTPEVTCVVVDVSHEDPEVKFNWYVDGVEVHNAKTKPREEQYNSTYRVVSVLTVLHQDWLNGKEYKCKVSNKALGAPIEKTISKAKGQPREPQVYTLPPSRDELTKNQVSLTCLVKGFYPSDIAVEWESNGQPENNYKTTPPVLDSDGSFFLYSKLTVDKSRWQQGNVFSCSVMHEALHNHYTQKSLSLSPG
light 1: B2 light 1
light 2: B2 light 2
notes: Dual Fab domain format (H1H1L1L1L2L2), IgG1 LALAPG; Purity 83 % main peak; O-glycosylation reported, likely in the inter-Fab linker
B5: RV32 (bispecific antibody, human IgG1, kappa, lambda, L234A L235A)
heavy: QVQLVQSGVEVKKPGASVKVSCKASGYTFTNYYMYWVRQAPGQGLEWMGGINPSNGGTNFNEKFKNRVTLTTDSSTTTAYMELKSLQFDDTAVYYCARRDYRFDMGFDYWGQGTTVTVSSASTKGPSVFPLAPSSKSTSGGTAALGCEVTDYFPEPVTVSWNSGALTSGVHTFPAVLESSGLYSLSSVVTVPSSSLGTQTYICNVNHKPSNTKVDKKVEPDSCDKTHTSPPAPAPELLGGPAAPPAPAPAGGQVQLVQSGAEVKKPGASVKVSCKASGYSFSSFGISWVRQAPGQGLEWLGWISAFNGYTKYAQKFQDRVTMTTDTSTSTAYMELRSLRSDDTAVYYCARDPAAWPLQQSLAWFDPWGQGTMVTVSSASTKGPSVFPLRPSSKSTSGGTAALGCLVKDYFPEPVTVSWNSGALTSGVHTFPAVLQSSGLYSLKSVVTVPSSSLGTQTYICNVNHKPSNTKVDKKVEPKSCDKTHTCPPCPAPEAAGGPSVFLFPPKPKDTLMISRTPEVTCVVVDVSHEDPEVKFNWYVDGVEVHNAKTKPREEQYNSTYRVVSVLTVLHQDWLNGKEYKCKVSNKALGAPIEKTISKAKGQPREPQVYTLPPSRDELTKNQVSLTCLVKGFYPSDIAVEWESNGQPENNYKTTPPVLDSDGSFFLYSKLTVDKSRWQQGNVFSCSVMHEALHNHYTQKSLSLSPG
light 1: B2 light 1
light 2: B2 light 2
notes: Dual Fab domain format (H1H1L1L1L2L2), IgG1 LALAPG; O-glycosylation reported, likely in the inter-Fab linker; also called bispecific antibody in dual Fab domain format (RV32); bispecific anti-PD-1 x anti-IL-15 antibody
B6: RV1 (antibody, human IgG1, lambda, V domains shown)
VH: QVQLVQSGAEVKKPGASVKVSCKASGYSFSSFGISWVRQAPGQGLEWLGWISAFNGYTKYAQKFQDRVTMTTDTSTSTAYMELRSLRSDDTAVYYCARDPAAWPLQQSLAWFDPWGQGTMVTVSS
VL: QSVLTQPPSASGTPGQRVTISCSGSTSNLKRNYVYWYQQLPGTAPKLLIYRDRRRPSGVPDRFSGSKSGTSASLAISGLRSEDEADYYCAWYDRELSEWVFGGGTKLTVLQ
notes: also called anti-IL-15 antibody (RV1); DISC0280-derived monospecific parent antibody
B7: RV29 (bispecific antibody, human IgG1, kappa, L234A L235A)
heavy: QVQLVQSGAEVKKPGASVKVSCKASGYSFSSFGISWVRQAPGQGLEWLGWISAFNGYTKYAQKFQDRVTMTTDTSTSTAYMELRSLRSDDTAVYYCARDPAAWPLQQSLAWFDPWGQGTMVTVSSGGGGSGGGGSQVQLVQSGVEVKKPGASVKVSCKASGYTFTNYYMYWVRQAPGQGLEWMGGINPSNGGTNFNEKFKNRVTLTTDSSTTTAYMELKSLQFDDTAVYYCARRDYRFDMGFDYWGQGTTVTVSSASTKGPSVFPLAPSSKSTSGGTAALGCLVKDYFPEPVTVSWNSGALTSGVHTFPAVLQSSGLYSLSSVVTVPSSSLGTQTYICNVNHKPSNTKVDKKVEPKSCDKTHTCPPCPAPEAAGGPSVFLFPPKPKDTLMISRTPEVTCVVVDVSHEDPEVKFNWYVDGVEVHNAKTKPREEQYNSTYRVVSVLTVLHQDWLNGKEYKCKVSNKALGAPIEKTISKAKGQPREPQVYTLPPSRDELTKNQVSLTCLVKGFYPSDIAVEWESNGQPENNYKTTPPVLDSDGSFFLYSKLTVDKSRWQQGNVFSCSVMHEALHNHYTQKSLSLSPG
light: QSVLTQPPSASGTPGQRVTISCSGSTSNLKRNYVYWYQQLPGTAPKLLIYRDRRRPSGVPDRFSGSKSGTSASLAISGLRSEDEADYYCAWYDRELSEWVFGGGTKLTVLGGGGSGGGGSEIVLTQSPATLSLSPGERATLSCRASKGVSTSGYSYLHWYQQKPGQAPRLLIYLASYLESGVPARFSGSGSGTDFTLTISSLEPEDFAVYYCQHSRDLPLTFGGGTKVEIKRTVAAPSVFIFPPSDEQLKSGTASVVCLLNNFYPREAKVQWKVDNALQSGNSQESVTEQDSKDSTYSLSSTLTLSKADYEKHKVYACEVTHQGLSSPVTKSFNRGEC
notes: Dual variable domain format, IgG1 LALAPG; also called bispecific antibody in DVD format (RV29); bispecific anti-PD-1 x anti-IL-15 antibody

The binders below were run against T1, human PD-1 (human, UniProt Q15116 25-167, limits assumed) (assay: SPR, variant as analyte over immobilised PD1).
T1 construct: Recombinant protein used in SPR as analyte or amine-coupled ligand; also called PD1 antigen
T1 sequence (Q15116 25-167 limits assumed): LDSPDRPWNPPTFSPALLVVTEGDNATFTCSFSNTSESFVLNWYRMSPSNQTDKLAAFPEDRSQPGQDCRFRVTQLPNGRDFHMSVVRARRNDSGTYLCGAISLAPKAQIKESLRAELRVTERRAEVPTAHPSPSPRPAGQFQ
B1 was tested, and the Kd was 2.19 nM.
B2 was tested, and the Kd was 3.62 nM.

These binders were tested against T1, human PD-1 (assay: SPR, variant captured on protein A, PD1 analyte).
Procedure: EDC: 1-ethyl-3-(3-dimethylaminopropyl) carbodiimide hydrochloride; NHS: N-Hydroxysuccinimide; SPR: surface plasmon resonance; EDTA: ethylenediaminetetraacetic acid SPR Supplies Series S Sensor Chip CM5, Biacore amine coupling kit (NHS, EDC and 1 M ethanolamine), and 10 mM sodium acetate buffers were purchased from Cytiva Life Sciences (Marlborough, MA). […] PBS running buffer with 1% Tween20 (PBST) was purchased from Teknova Inc. (Hollister, Calif.). Goat polyclonal anti-human Fc antibody was purchased from Jackson Immuno Research Laboratories Inc. (West Grove, Pa.). EDTA was purchased from Bioshop (Burlington, ON). All SPR assays were carried out using a Biacore T200 Surface Plasmon Resonance instrument (Cytiva Life Sciences, (Marlborough, MA)) with PBST running buffer (with 0.5 M EDTA stock solution added to 3.4 mM final concentration) at a temperature of 25° C. […]
The first flow cell was left empty to use as a blank control. […] Buffer injections were performed for each analyte injection to be used for referencing.
B3 showed a Kd of 97 nM.

These binders were tested against T1, human PD-1 (assay: SPR, variant as analyte over immobilised PD1 (avidity possible)).
B4 gave a Kd of 0.163 nM.
Binder B5 has a Kd of 0.0678 nM.
B3 showed a Kd of 0.243 nM.

The binders below were run against T2, human IL-15 (human, UniProt P40933 49-162) (assay: SPR, variant captured on anti-human Fc, IL-15 analyte, single-cycle kinetics, 1:1 fit).
T2 construct: also called Premium grade IL-15; GMP grade human IL-15
T2 sequence (P40933 49-162 limits assumed): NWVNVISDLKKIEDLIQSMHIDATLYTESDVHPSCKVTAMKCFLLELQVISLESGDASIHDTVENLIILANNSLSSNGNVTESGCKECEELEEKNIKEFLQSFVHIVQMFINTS
Procedure: EDC: 1-ethyl-3-(3-dimethylaminopropyl) carbodiimide hydrochloride; NHS: N-Hydroxysuccinimide; SPR: surface plasmon resonance; EDTA: ethylenediaminetetraacetic acid SPR Supplies Series S Sensor Chip CM5, Biacore amine coupling kit (NHS, EDC and 1 M ethanolamine), and 10 mM sodium acetate buffers were purchased from Cytiva Life Sciences (Marlborough, MA). […] PBS running buffer with 1% Tween20 (PBST) was purchased from Teknova Inc. (Hollister, Calif.). Goat polyclonal anti-human Fc antibody was purchased from Jackson Immuno Research Laboratories Inc. (West Grove, Pa.). EDTA was purchased from Bioshop (Burlington, ON). All SPR assays were carried out using a Biacore T200 Surface Plasmon Resonance instrument (Cytiva Life Sciences, (Marlborough, MA)) with PBST running buffer (with 0.5 M EDTA stock solution added to 3.4 mM final concentration) at a temperature of 25° C. The anti-human Fc capture surface was generated using a Series S Sensor Chip CM5 using the default parameters under the Immobilization Wizard in the Biacore T200 control software which was set to target 3000 resonance units (RUs).
The first flow cell was left empty to use as a blank control. […] The captured antibody surfaces were regenerated twice by 10 mM Glycine pH1.5 for 30 seconds at 30 μL/min. Buffer injections were performed for each analyte injection to be used for referencing.
B6 gave a Kd of 0.349 nM.
B1 was tested, and the Kd was 0.396 nM.
B4 was tested, and the Kd was 0.18 nM.
Binder B5 has a Kd of 0.108 nM.
In the case of B7, the Kd is reported as 0.114 nM.
Work on B2 yielded a Kd of 0.108 nM.
For B3, the Kd was 0.116 nM.

The binders below were run against T2, human IL-15 (assay: SPR, variant captured on immobilised PD1, IL-15 analyte, single-cycle kinetics, 1:1 fit).
B4 was tested, and the Kd was 0.717 nM.
Binder B5 has a Kd of 0.352 nM.
With B7 the Kd was 0.339 nM.
Binder B3 has a Kd of 0.111 nM.

The binders below were run against T1, human PD-1 (assay: SPR, variant as analyte over immobilised PD1 (avidity possible); PD1 capture surface, RV29 as analyte (third entry of the cell; avidity possible)).
For B7, the Kd was 2.35 nM.
